B1: HDV Ribozyme (parent)
chain: GGCCGGCAUGGUCCCAGCCUCCUCGCUGGCGCCGGCUGGGCAACAUUCCGAGGGGACCGUCCCCUCGGUAAUGGCGAAUGGGACCCA

The variants in this series derive from B1. Briefly: self-cleavage, relative activity (ratio to wild type); higher = more cleavage; co-transcriptional.
Regarding C21U U79C, the self-cleavage was found to be 0.0573. Under C21U U79G stands 0.0426. In the case of C22A G73U it was 0.0573; in that of C21U G74A, 0.149; in that of C21U G74U, 0.0875. Under C21U G74C stands 0.158; under C22G A56U, 0.133.

For the variant C22G A56C, the self-cleavage came to 0.

Consider C22A G76A, for which the self-cleavage was found to be 0.212.

In the case of C22A G76U, the self-cleavage is 0.554. On to C22A G76C, for which the self-cleavage stood at 0.447. In the case of C22G U23C it was 0; in that of C21U C58A, 0.136; in that of C21U C58U, 0.203.

Regarding C21U G25U, the self-cleavage stood at 0.0811. Under C22G C30U stands 0.0723. Under C22G C30A stands 0.0652; under C22G C30G, 0.0437. Turning to C21U G73C, the self-cleavage is 0.119. Under C21U G73U stands 0.145; under C22A C57G, 0.543; under C22A C57U, 0.343. Under C22G G81C stands 0; under C22G G81U, 0.089; under C21U G31C, 0.0723. With C21U G31A, the self-cleavage was determined as 0.142.

Turning to C22U C24G, the self-cleavage worked out at 0.0563. Under C22G U60A stands 0.141. Under C22G U60G stands 0; under C22A A43C, 0.111.

Take C21U C22A: the self-cleavage was found to be 0.0482. In the case of C21U C22G it was 0.0264; in that of C22G C44G, 0.0437; in that of C22G C44U, 0.0361. Consider C22U A83U, for which the self-cleavage came out at 0.199. Under C22U A83G stands 0.12; under C21U C85A, 0.366.

Take C21G U72A: the self-cleavage is 0.0723. In the case of C22G U46C it was 0.116. In the case of C22G C32A it was 0; in that of C22G C32G, 0; in that of C22G C32U, 0.0707. Under C22G A42C stands 0.185; under C22G A42G, 0; under C22A C58G, 0.38. C22A C58U: the self-cleavage turned out to be 0.332. In the case of C22A C58A it was 0.203; in that of C22G A83U, 0.0462; in that of C22G C75U, 0.16. For the variant C22G U72G, the self-cleavage stood at 0.0554. In the case of C22G U72A it was 0.196; in that of C22G G38C, 0.391; in that of C22G G38A, 0.0231. For C21U A83U, the self-cleavage came to 0.162.

Consider C21U A83G, for which the self-cleavage was found to be 0.124. In the case of C22G C62G it was 0.111; in that of C22G C62A, 0.106; in that of C21U A43U, 0.13. Under C21U A43G stands 0.0898; under C21U G76C, 0.347; under C21U G67C, 0.205. In the case of C22G G25C it was 0.0665; in that of C22G G25U, 0.102; in that of C22G C66G, 0.0845. Turning to C21U G53C, the self-cleavage was 0.188. Under C21U G53A stands 0.116. On to C22G G82A, for which the self-cleavage worked out at 0.0723. Take C22G G82U: the self-cleavage stood at 0.0652. Under C22G G50U stands 0.0297; under C22G G39C, 0.0554. In the case of C22U C30G it was 0.126; in that of C21U U69C, 0.138; in that of C21U U60A, 0.237. In the case of C21U U60C it was 0.219; in that of C22A A45C, 0.115.

On to C22A A45U, for which the self-cleavage worked out at 0.233.

Take C22A G81U: the self-cleavage was 0.0536. In the case of C22A C33G, the self-cleavage worked out at 0.213.

In the case of C21U C66A, the self-cleavage came out at 0.153. On to C21U C66U, for which the self-cleavage worked out at 0.299. In the case of C21U C32A it was 0.0674; in that of C21U C32G, 0; in that of C21G U60A, 0.253.

On to C22A A87U, for which the self-cleavage was found to be 0.24. Under C22A C32U stands 0.19. Under C21U C30G stands 0.107.

C21U C30U: the self-cleavage turned out to be 0.0755.

As for C22A C85A, the self-cleavage was 0.378. In the case of C22A C85G it was 0.219; in that of C22U C26U, 0.847; in that of C22U C26G, 0.492.

Regarding C22U A43C, the self-cleavage amounted to 0.0282. As to C21U G35A, the self-cleavage came out at 0.108.

Turning to C21U G35C, the self-cleavage was determined as 0.233.

With C21U G35U, the self-cleavage came to 0.0804.

As to C21U G54A, the self-cleavage was 0.159. In the case of C21U G54U it was 0.232. Under C22A U79C stands 0.18; under C22A U79A, 0.131.

Turning to C22G C36A, the self-cleavage came to 0.0773.

Turning to C22G C36G, the self-cleavage is 0.123.

As to C22G, the self-cleavage was 0.0832. Under C22A stands 0.306. Turning to C22U, the self-cleavage turned out to be 0.736. In the case of C22A G67A it was 0.185; in that of C22G C64G, 0.0723; in that of C22G C64A, 0.125. In the case of C22G G52C it was 0.0652; in that of C22G G80U, 0.142. Under C22G C26A stands 0.156; under C22G A77G, 0.0504.

As for C22G A77U, the self-cleavage was found to be 0.162.

On to C22U A45C, for which the self-cleavage came to 0.113.

For C22U A45U, the self-cleavage was determined as 0.325.

C22A C30G: the self-cleavage came out at 0.154.

Turning to C22G A71C, the self-cleavage was determined as 0.151. Under C22G A71G stands 0.0573. Regarding C22U A77C, the self-cleavage was 0.141.

As to C22U A77G, the self-cleavage was 0.369. Under C22G A87U stands 0.141; under C22G A87C, 0.0866; under C22G C49A, 0.131. In the case of C21U G52A it was 0.24; in that of C21U G40U, 0.0764. In the case of C21U G40A it was 0.538; in that of C21U C61G, 0.277; in that of C21U C61U, 0.319.

For the variant C22U C32G, the self-cleavage was determined as 0.0941. In the case of C21U C41G it was 0.432. Under C22G G67C stands 0.132. Take C21U A71C: the self-cleavage came out at 0.293.

In the case of C22U A87C, the self-cleavage was 0.665. In the case of C22U A87G it was 0.737. Consider C22G G74U, for which the self-cleavage was determined as 0.0841. In the case of C22G G74A it was 0.0241; in that of C22G G74C, 0; in that of C21G U47G, 0.185. Under C21G U47C stands 0. Under C21G U79C stands 0.0244; under C21G U79A, 0.0875; under C21U C63U, 0.341. As to C21U C63A, the self-cleavage turned out to be 0.234.

Turning to C22G G59U, the self-cleavage is 0.0817. In the case of C21U U72G it was 0.19; in that of C21U U72A, 0.141; in that of C22G A51G, 0.104.

C22G A51C: the self-cleavage amounted to 0.116. As for C22G C24U, the self-cleavage stood at 0.104. Under C22A C62U stands 0.387; under C22A C62A, 0.339; under C21U A70U, 0.228. Turning to C21U A70G, the self-cleavage was 0.271. In the case of C21U A70C it was 0.332. In the case of C21U U37G it was 0.0875. Regarding C21U G38U, the self-cleavage is 0.135. Under C21U G38A stands 0.177; under C21U G38C, 0.0923; under C22A C41A, 0.475.

Take C21G U37G: the self-cleavage is 0.166. In the case of C21U C57A it was 0.233; in that of C21U C57G, 0.196; in that of C22G U27C, 0. Under C21U U27C stands 0.0536; under C21U U27A, 0.0536; under C21G U46G, 0.0978. In the case of C22G G53A it was 0.0779. On to C22G G53C, for which the self-cleavage turned out to be 0.

Values taken from the RNAGym collection of RNA variant scans (doi:10.7554/elife.80360).
